Data on 2 substances can be found in paper PMC9865183.

Assay [1] addresses rituximab (human monoclonal IgG1) (human). Briefly: ITC; Z3 titrated into rituximab in the sample cell; PBS, pH 7.4, 25 °C; MicroCal PEAQ-ITC; triplicate.
The target is the same in assay [2]. Put plainly: differential scanning fluorimetry; equimolar (1:1) mixture of rituximab and Z3 against rituximab alone; SYPRO orange, 20 mM Tris, pH 7.4. For orientation: Differential scanning fluorimetry follows unfolding on heating by fluorescence.
Assay [3] has the same target. Briefly: SPR; rituximab covalently immobilised (NHS/EDC) on a CM5 chip, Biacore X100; Z3 flowed over in HBS-EP+ (10 mM HEPES, 150 mM NaCl, 3 mM EDTA, 0.005% Tween-20, pH 7.4); 1:1 Langmuir model; KD calculated as koff/kon.
In assay [4] the target is linear Z3 (linear trimer of the Staphylococcus aureus protein A Z domain) (Staphylococcus aureus). Briefly: AUC; sedimentation velocity at 40,000 and 60,000 rpm, PBS (Dulbecco), 20 °C, 220 nm; molar mass transformation.

rituximab (human monoclonal IgG1) (human), sequence (heavy, as listed by the source, chain 1 of 2): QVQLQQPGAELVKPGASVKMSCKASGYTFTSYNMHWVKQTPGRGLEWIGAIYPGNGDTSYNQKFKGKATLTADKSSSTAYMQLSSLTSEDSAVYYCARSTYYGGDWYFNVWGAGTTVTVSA
rituximab (human monoclonal IgG1) (human), sequence (light, as listed by the source, chain 2 of 2): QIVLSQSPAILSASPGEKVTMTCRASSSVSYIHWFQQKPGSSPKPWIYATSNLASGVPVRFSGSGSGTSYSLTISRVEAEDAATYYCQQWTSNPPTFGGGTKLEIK

With “cyclic Z3 (intein-cyclized trimer of the Staphylococcus aureus protein A Z domain) (designed binder)”, in assay [1], the dissociation constant (Kd) (in general, the equilibrium constant for the complex coming apart) was 7.6 nM; the dH is -32.7 kcal/mol; the stoichiometry N (IgG1 molecules per cyclic Z3 molecule) is 2.1. Further, in assay [2], the increase of the lower transition temperature of rituximab amounted to 4.9 °C and the upward shift of the 81.3 °C transition of rituximab was found to be 1.5 °C. For the same substance, in assay [3], the Kd is 3.3 nM; the koff (in general, the first-order rate constant of dissociation) is 0.00073 s⁻¹; the kon (commonly a measure of how fast the partners come together) is 220000 M⁻¹ s⁻¹.
In assay [1], “linear Z3 (linear trimer of the Staphylococcus aureus protein A Z domain) (designed binder)” returned a Kd of 2.8 nM, a dH of -33 kcal/mol and a stoichiometry N (IgG1 molecules per linear Z3) of 1.9. Besides, in assay [4], the stoichiometry N (commonly a count of units in the complex or per binding partner) was below 3. For the same substance, in assay [2], the increase of the lower transition temperature of rituximab was 4.9 °C and the upward shift of the 81.3 °C transition of rituximab amounted to 3.3 °C. In assay [3], the dissociation constant Kd was 2.9 nM, the koff is 0.00092 s⁻¹ and the association rate constant (kon) was 310000 M⁻¹ s⁻¹.
